Source: patent publication WO2023190851A1 (dated 2023)

Biological target: SARS-CoV-2 Spike RBD, His Tag (BA.2/Omicron) (SARS-CoV-2, Omicron BA.2 lineage, UniProt P0DTC2 319-537)

B1: natural human IgG antibody (HIG001677) (antibody, V domains shown)
VH: EVQLVESGGGLVQPGGSLRLACAASGLTVSRNYMNWVRQAPGKGLEWVSLVYPGGSTFYADSVKGRFTISRDNSKNTLYLQMNSLRADDTAVYYCAREVRGRGDYWGQGTLVTVST
VL: DIQMTQSPSSLSASVGDRVTITCQASQDINKYLNWYQQKPGKAPKLLIYDASNLEPGVPSRFSGSGSGTDFTFTISNLQPEDIATYYCQNYDNLPQTFGQGTRLEIKR
  Kd: 8.58 nM
